Experimental data taken from patent US20240043505A1 (UNIVERSITY OF PITTSBURGH OF THE COMMONWEALTH SYSTEM OF …, published 2024).
“And” between values parts separate entries of the source, which are not always exact repeats. Equal entries are not always repeated.

Tests used:
[1] = target: T1, SARS-CoV-2 (Wuhan-Hu-1 strain) spike glycoprotein on pseudotyped virus particles (SARS-CoV-2, UniProt P0DTC2 14-1273); test: cell-based or functional assay
[2] = target: SARS-CoV-2 spike receptor-binding domain (RBD) (SARS-CoV-2, UniProt P0DTC2 319-541); test: indirect ELISA, RBD coated on plate, 4PL fit
[3] = target: SARS-CoV-2 spike glycoprotein (Wuhan-Hu-1 strain) on pseudotyped virus particles (SARS-CoV-2 (Wuhan-Hu-1 strain), UniProt P0DTC2 14-1273); test: cell-based or functional assay
[4] = target: T1, SARS-CoV-2 (Wuhan-Hu-1 strain) spike …; test: cell-based or functional assay; remark: listed apart in the source
[5] = target: SARS-CoV-2 Munich strain spike glycoprotein on authentic virus (SARS-CoV-2); test: cell-based or functional assay

Binder	Pseudo-neut IC50 Luciferase [1] [nM]	ELISA affinity [2] [nM]	also measured
Nb6 (VHH) VHH: HVQLVESGGGLVQAGGSLRLSCAASGRTFSTHATGWFRQAPGKEREFLATSVWLDDISRDSTYYAESVKGRFSISRDNAKDTVYLQMNSLKPEDTAVYYCAVKQRVGPGIMSAPTYDYWGQGTQVTVSS			Pseudo-neutralization (GFP) [1]: > 3 µM
Nb93 (VHH) VHH: EVQLVESGGGLVQPGGSLRLSCAASGFTFSSYAMSWVRQAPGKGREWVAGITPGSGTFYADSVKGRFTISRDNAKNTLSLEINSLKPEDTALYYCAKCRQEFSWDFSSRDPDDFDYWGQGTQVTVSS	14.5		
Nb95 (VHH) VHH: QVQLVESGGGLVQAGGSLRLSCAASGRTFSSYSMGWFRQAQGKEREFVATINGNGRDTYYTNSVKGRFTISRDDATNTVYLQMNSLKPEDTAIYYCAADKDVYYGYTSFPNEYEYWGQGTQVTVSS		2.28	
Nb28 (VHH) VHH: HVQLVESGGGLVQAGGSLRLSCAASGRTFSTSTMDMGWFRQAPGKEREFVGADSWNDGRTYYADSVKGRFTISRDNAKNTLYLQMNNLKPEDTAVYYCAAETYSLYEKSDSWGYWGQGTQVTVSS [Nb28, listing 1 of 2 here]		0.92	Pseudo-neutralization IC50 (Luciferase) [3]: 6 nM
Nb36 (VHH) VHH: HVQLVESGGGLVQAGGSLTLTCAASGRTFSSETMDMGWFRQAPGKEREFVAADSWNDGSTYYADSVKGRFTISRDSAKNTLYLQMNSLKPEDTAVYYCAAETYSIYEKDDSWGYWGQGTQVTVSS [Nb36, listing 1 of 2 here]	1.56		neutralization of SARS-CoV-2 (assay not stated) [4]: ≤ 100 ng/mL
Nb36 (VHH) VHH: HVQLVESGGGLVQAGGSLTLTCAASGRTFSSETMDMGWFRQAPGKEREFVAADSWNDGSTYYADSVKGRFTISRDSAKNTLYLQMNSLKPEDTAVYYCAAETYSIYEKDDSWGYWGQGTQVTVSS [Nb36, listing 2 of 2 here]		1.04	Pseudo-neutralization IC50 (Luciferase) [3]: 7 nM
Nb28 (VHH) VHH: HVQLVESGGGLVQAGGSLRLSCAASGRTFSTSTMDMGWFRQAPGKEREFVGADSWNDGRTYYADSVKGRFTISRDNAKNTLYLQMNNLKPEDTAVYYCAAETYSLYEKSDSWGYWGQGTQVTVSS [Nb28, listing 2 of 2 here]	6.12		
Nb9 (VHH) VHH: HVQLVESGGGLVQTGGSLRLSCAFSGYTFSTFPTAWFRQAPGKEREFVAGIRWNGGSRDYTEYADFVKGRFTISRDNAKNMIYLQMISLKPEDTALYYCAASHGVVDGTSVNGYRYWGQGTQVTVSS	1.5		Authentic virus PRNT IC50 [5]: 1.72 nM
Nb90 (VHH) VHH: HVQLVESGGGLVQAGGSLRLSCAVSGRTVSSYVMGWFRQAPGKEREFVAGIGRTGMTITADSVKGRFTISRDNAKNLVYLQMNSLKSEDTAVYWCAAGVRDFAPRIDSYDYWGQGTQVTVSS			Pseudo-neutralization (GFP) [1]: > 3 µM
Nb66 (VHH) VHH: HVQLVESGGGLVQAGGSLRLSCAASGRTFSVNSIAWFRQAPGKEREFVATINWSGGDIYYADSVKGRFTISRDNGKNTVYLQMNSLKPTDTAVYYCAAARFYGRSIAQDYDSWGQGTQVTVSS		0.33	
Nb99 (VHH) VHH: QVQLVESGGGLVQTGGSLRLSCAASGSTRSIWYSGWYRQAPGKQRELVASLTSGGTTYYPDSMKGRFTISGSSGLNMVYLQMNSLRPEDTAVYSCNVRTGSGVYWGQGTQVTVSS [Nb99, listing 1 of 2 here]	0.524		Authentic virus PRNT IC50 [5]: 0.452 nM
Nb99 (VHH) VHH: QVQLVESGGGLVQTGGSLRLSCAASGSTRSIWYSGWYRQAPGKQRELVASLTSGGTTYYPDSMKGRFTISGSSGLNMVYLQMNSLRPEDTAVYSCNVRTGSGVYWGQGTQVTVSS [Nb99, listing 2 of 2 here]		0.35	
Nb11 (VHH) VHH: HVQLVESGGGLVQAGGSLRLSCAVSGASAERVGWFRRAPGKEREFVAAIGANGGSTNYLDSVKGRFTISRDNAKNTVYLQMNSLKPQDTAVYYCAARNLETFDYTYWGRGTQVTVSS	1.08		Authentic virus PRNT IC50 [5]: 0.8 nM
Nb78 (VHH) VHH: QVQLVESGGGLVQAGGSLRLSCAISGASANRVGWFRRAPGKEREFVAAIGASGGMTNYLDSVKGRFTISRDNAKNTVYLQMNSLKPQDTAVYYCAARNIETAEYTYWGQGTQVTVSS	0.509		Authentic virus PRNT IC50 [5]: 0.766 nM
Nb20 (VHH) VHH: QVQLVESGGGLVQAGGSLRLSCAVSGAGAHRVGWFRRAPGKEREFVAAIGASGGMTNYLDSVKGRFTISRDNAKNTIYLQMNSLKPQDTAVYYCAARDIETAEYIYWGQGTQVTVSS	0.102		IC50, pseudovirus assay [4]: 1.6 ng/mL; Pseudo-neutralization (GFP) [1]: < 0.0005 µM
Nb102 (VHH) VHH: QVQLVESGGGLVQAGGSLRLSCAASGRTFSNSHMGWFRQAPGKEREFVAVISRSGGSTLYADSVKGRFTISRDNAKNTVYLQMNSLKPEDTAVYYCAASRTAGLTSNRSLYDYWGRGTQVTVSS			Pseudo-neutralization (GFP) [1]: 0.5 µM and 3 µM
Nb92 (VHH) VHH: HVQLVESGGGLVQAGGSLRLSCAASGRTFSAYGMGWFRQAPGKEREFVAGIARSGSEYYGDSVKGRFTISRDNAKNTVYLQMASLKAEDTGVYYCAADPTILYHALSQRTQNYRYWGPGTQVTVSS			Pseudo-neutralization (GFP) [1]: > 3 µM
Nb82 (VHH) VHH: DVQLVESGGGLVQAGGSLGLSCAASGSIFRLTAMGWYRQAPGKQRDLVTTITSAGIPHYADSVKGRFTISRDNAKNTVYLQMNGLKPEDTAVYYCYANTLNSQLLPRAYWGQGTQVTVSS [Nb82, listing 1 of 2 here]	12.2		
Nb82 (VHH) VHH: DVQLVESGGGLVQAGGSLGLSCAASGSIFRLTAMGWYRQAPGKQRDLVTTITSAGIPHYADSVKGRFTISRDNAKNTVYLQMNGLKPEDTAVYYCYANTLNSQLLPRAYWGQGTQVTVSS [Nb82, listing 2 of 2 here]		0.86	
Nb48 (VHH) VHH: HVQLVESGGGLVQAGGSLRLSCAASGSIFRHYNMGWFRQAPGKEREFVSAISWTNIGTYYADSVKGRFSISRDNNRNTAYLEMNSLKPEDTAVYYCAADRSEFGSRLYSDENEYDYWGQGTQVTVSS [Nb48, listing 1 of 2 here]		1.08	Pseudo-neutralization (GFP) [3]: 500 nM
Nb48 (VHH) VHH: HVQLVESGGGLVQAGGSLRLSCAASGSIFRHYNMGWFRQAPGKEREFVSAISWTNIGTYYADSVKGRFSISRDNNRNTAYLEMNSLKPEDTAVYYCAADRSEFGSRLYSDENEYDYWGQGTQVTVSS [Nb48, listing 2 of 2 here]			Pseudo-neutralization (GFP) [1]: 0.5 µM and 3 µM
Nb64 (VHH) VHH: QVQLVESGGGLVQAGGSLRLSCAVSGRTFSIAGMGWFRQAPGKDREFLGGITWNDGTTWYADSVKGRFTISRDNAKNMLSLRMNSLKPEDTAVYYCAAGPRLGSTPRAYDYWGQGTQVTVSS [Nb64, listing 1 of 2 here]	4.13		Authentic virus PRNT IC50 [5]: 4.88 nM
Nb64 (VHH) VHH: QVQLVESGGGLVQAGGSLRLSCAVSGRTFSIAGMGWFRQAPGKDREFLGGITWNDGTTWYADSVKGRFTISRDNAKNMLSLRMNSLKPEDTAVYYCAAGPRLGSTPRAYDYWGQGTQVTVSS [Nb64, listing 2 of 2 here]		0.45	
Nb16 (VHH) VHH: DVQLVESGGGLVQAGESLRLSCAASGDMFSSNAMAWYRQAPGKQRELVASITSGGNTNYADSVKGRFTISRDNAKNTVYLQMDSLKPEDTAVYYCNGVAYDYSWGRPRNFWGQGTQVTVSS	1.57		Authentic virus PRNT IC50 [5]: 1.23 nM
Nb107 (VHH) VHH: HVQLVESGGGLVQAGGSLRLSCAASGRAIGIHRMAWFRQAPGKERAFVAAIQWTGDMPTYADSLKGRFTISADNAKNTVSLQMTSLKPDDTAVYYCAARSATTALYDYWGQGTQVTVSS [Nb107, listing 1 of 2 here]	0.569		Authentic virus PRNT IC50 [5]: 0.181 nM
Nb107 (VHH) VHH: HVQLVESGGGLVQAGGSLRLSCAASGRAIGIHRMAWFRQAPGKERAFVAAIQWTGDMPTYADSLKGRFTISADNAKNTVSLQMTSLKPDDTAVYYCAARSATTALYDYWGQGTQVTVSS [Nb107, listing 2 of 2 here]		0.76	
Nb97 (VHH) VHH: HVQLVESGGGLVQAGGSLRLSCAAPGRTFSTSAMGWFRQAPGKEREFVAAIDWSNTNIHYADTVKGRFTISTDTAKNTVYLQMNNLKPEDTAVYYCAQGGWGLTQPISVDYWGKGTQVTVSS		0.32	
Nb83 (VHH) VHH: HVQLVESGGGLVQPGGSLRLSCAASGRSFNSYLMGWFRQAPGKEREFVAWISGSPHDIIRYRDSVKDRFTISRDNAKNTVYLQMNSLKPVDTAVYYCAVGSLRVGSFSPDYWGQGTQVTVSS		1.51	
Nb105 (VHH) VHH: HVQLVESGGGLVQAGGSLRLSCAVSGRTFSTYGMAWFRQAPGKERDFVATITRSGETTLYADSVKGRFTISRDNAKNTVYLQMNSLKIEDTAVYYCAVRRDSSWGYSRDLFEYDYWGQGTQVTVSS		0.26	
